The source of these data is PMC3942479.

The experiment addresses Full-length Human cytomegalovirus glycoprotein B (FL-gB), Strep-tagged (Human cytomegalovirus (FIX7 BAC)). Nature of the experiment: negative-stain electron microscopy; purified FL-gB on a glow-discharged carbon grid, 2% uranyl formate, 2D class averages.

“Full-length Human cytomegalovirus glycoprotein B (FL-gB), Strep-tagged (natural protein)” came in with a stoichiometry N of 3.

One may read the stoichiometry N as a count of units in the complex or per binding partner.
